According to patent US20200131515:
pKd: −log10 of the molar value.

Experiments:
Experiment in all cases: SPR
[1] = test system: H-LDL particle (small dense LDL); conditions: 5' disulfide, unit inferred
[2] = test system: HDL particle (high-density lipoprotein); conditions: 5' disulfide; 100 nM HDL, selection buffer
[3] = test system: LDL particle (low-density lipoprotein, apoB-containing), commercial; conditions: 5' disulfide
[4] = test system: L-LDL particle (large fluffy LDL); conditions: 5' disulfide; unit inferred
[5] = 1 nM LDL added to 1% blood serum in selection buffer
[6] = 1 nM LDL, selection buffer, repeat on gold chip
[7] = aptamer on gold chip, unit inferred
[8] = printed kD differs from kd/ka of same row

Row | Sequence | pKd [1] | pKd [2] | pKd [3, 5] | pKd [3, 6] | pKd [3, 7] | pKd [1, 8] | pKd [4]
1 | AACTACATGGTATGTGGTGAACTAAACCATTCTTGTCTCGCATTTTTCTCTTTTATATTATTTGACGTACAATGTACCC [LDL-A38] | 9.63 | 7.94 | 10.75 | 10.68 | 10.34 | – | –
2 | AACTACATGGTATGTGGTGAACTAACCTTAATTTACCCTTGTTTTATCATTTCCATCATAGCTGACGTACAATGTACCC [LDL-A12] | 10.64 | 8.14 | 10.33 | 10.97 | 10.30 | – | –
3 | AACTACATGGTATGTGGTGAACTACCTCGATTTTATATTATTTCGCTTACCAACAACTGCAGAGACGTACAATGTACCC [LDL-A1] | – | 8.05 | – | 11.77 | – | 8.91 | 10.49
4 | AACTACATGGTATGTGGTGAACTCACGCGCATAACCCTTTTTTCACCTGCCCTTTTAACTAATGACGTACAATGTACCC [LDL-A274] | – | 8.08 | 9.94 | 10.67 | 10.11 | 9.10 | 9.32
5 | AACTACATGGTATGTGGTGAACTGTCAGCTTCTTCTATATAATTCACCTTGCCTCTCGTTCCTGACGTACAATGTACCC [LDL-A2] | – | 8.01 | 11.29 | 10.82 | 10.38 | – | 10.80
